Test results as given in paper PMC2696559.

Target: histone H2b (human, UniProt Q16778 1-126)
Experiment: EMSA

Q: Does GGAGGAGGAGGAGGAG (ssDNA) [16-mer oligonucleotide] bind?
A: Result: binds
